For 36 sequences, protein stability index results are on record in the supplement of paper PMC10567573.

A short description of this data set: protein stability index of a GFP-peptide fusion (GPS, HEK-293T) (PSI 1-6); higher = more stable. The conditions noted are these: c terminus: a fixed tail appended.

± gives the standard deviation.
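Further: 24-mer peptide tiles fused after GFP, lentivirally expressed, FACS-sorted into six equal bins by GFP/DsRed ratio, decoded by Illumina sequencing, PSI is the read-weighted mean bin number.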

For the sequence IGSSVMAASLVTMGIVNLNIHMNF [SLC2A12], the protein stability index runs as follows: (treatment: DMSO) 3.05 ± 0.24; (treatment: MLN4924 1 uM, 8 h) 3.13 ± 0.17.
In the same order, the values of IHGFPWWPARVLDISLGQKEDGEP [PWWP2B] are 3.05 ± 0.18 and 3.54 ± 0.4.
As to IHLREDLVQDQDLEAIRKQDLVEL [ZER1], the protein stability index was 4.5 ± 0.096 (treatment: DMSO) and 4.56 ± 0.28 (treatment: MLN4924 1 uM, 8 h).
On to IHPDEDISLEERRAQLPKYQRNLP [ZNF207], for which the protein stability index by setting is: (treatment: DMSO) 4.19 ± 0.27; (treatment: MLN4924 1 uM, 8 h) 4.46 ± 0.31.
For IIELLGSIPRHFALSGKYSREFFN [SRPK2], the protein stability index is, setting by setting: (treatment: DMSO) 2.75 ± 0.54; (treatment: MLN4924 1 uM, 8 h) 2.56 ± 0.39.
On to IIVRTTNKKYYKKFSIPDLDRHQL [DPCD], for which the protein stability index is 2.29 ± 0.55 (treatment: DMSO) and 2.14 ± 0.29 (treatment: MLN4924 1 uM, 8 h).
In the case of IKDKEAPLHVAQTRLYLRSHRPNM [TEKT4], the protein stability index was found to be 3.23 ± 0.25 (treatment: DMSO) and 3.23 ± 0.25 (treatment: MLN4924 1 uM, 8 h).
For IKGLQRKERLKPAHIHLQQLTCFS [KRT34], the protein stability index (treatment: DMSO) stood at 2.3 ± 0.39 and the protein stability index (treatment: MLN4924 1 uM, 8 h) turned out to be 2.36 ± 0.37.
In the same order, the values of IKPPPPLVLNSQQSDTLEQREEHE [RAD54B] are 5.23 ± 0.13 and 5.3 ± 0.34.
For ILGSGEEGPQVGPSAAQTLRSFCA [ADAMTS4], the protein stability index was 3.7 ± 0.5 (treatment: DMSO) and 3.95 ± 0.53 (treatment: MLN4924 1 uM, 8 h).
For ILLSKEPDGVWAYNRGEHPIFVNS [SMAD6], the protein stability index was determined as 2.2 ± 0.19 (treatment: DMSO) and 2.44 ± 0.2 (treatment: MLN4924 1 uM, 8 h).
For INHLLKSPFSVHPKTGRISVPIDL [PRIM1] the same measures were 2.06 ± 0.21 and 2.48 ± 0.17.
In the same order, the values of IQSRVQELHPESGEEAVTLVEDMQ [ZNF263] are 5.42 ± 0.18 and 5.44 ± 0.11.
On to IREEGRCSSSDDDTDVDMEGLRRR [PBXIP1], for which the protein stability index amounted to 5.37 ± 0.25 (treatment: DMSO) and 5.42 ± 0.36 (treatment: MLN4924 1 uM, 8 h).
Regarding IRLTQYIDGQGRPRTSQSEETRVW [CAMK2B], the protein stability index runs as follows: (treatment: DMSO) 3.13 ± 0.3; (treatment: MLN4924 1 uM, 8 h) 3.16 ± 0.14.
For the sequence ISEAFSQRVGFGDDFDEDELMAEL [CHMP4C], the protein stability index by setting is: (treatment: DMSO) 4.86 ± 0.32; (treatment: MLN4924 1 uM, 8 h) 5.07 ± 0.2.
For ISEEGHHYLIFDLVTGGELFEDIV [CAMK2A] the same measures were 2.47 ± 0.62 and 2.13 ± 0.29.
Consider ISENLDYEETGFYEIEIQAEDGGA [PCDHGA10], for which the protein stability index reads like this: (treatment: DMSO) 4.74 ± 0.18; (treatment: MLN4924 1 uM, 8 h) 4.7 ± 0.2.
As to ISLINTRMLFWACSTNKPEGYRVS [FAF2], the protein stability index reads like this: (treatment: DMSO) 2.5 ± 0.61; (treatment: MLN4924 1 uM, 8 h) 2.35 ± 0.39.
On to ISLWPREPPPKSGPSLVPGKTPTV [CD207], for which the protein stability index is, setting by setting: (treatment: DMSO) 3.06 ± 0.18; (treatment: MLN4924 1 uM, 8 h) 3.43 ± 0.084.
For ITSETTSTTTTTHITKTVKGGISE [EPB41L3] the same measures were 5.06 ± 0.22 and 4.69 ± 0.79.
As to IVIADVKLVADFQRYILYWRKRFT [ZNF277], the protein stability index reads like this: (treatment: DMSO) 2.48 ± 0.57; (treatment: MLN4924 1 uM, 8 h) 2.48 ± 0.46.
In the same order, the values of IVTKFYQLSATGQKLYVRLFQRKL [FAN1] are 3.6 ± 0.98 and 2.57 ± 0.51.
Turning to IVWSLAFGSSVPEKQSRCVNIEWH [WSB1], the protein stability index is, setting by setting: (treatment: DMSO) 2.92 ± 0.36; (treatment: MLN4924 1 uM, 8 h) 2.93 ± 0.21.
In turn, IWLAESVLDILTEQREWVLKSSIL [INTS3] showed a protein stability index (treatment: DMSO) of 2.88 ± 0.82 and a protein stability index (treatment: MLN4924 1 uM, 8 h) of 2.6 ± 0.84.
In the case of IYQGEDLPHPKSMLQATAEANNLA [ATL3], the protein stability index was 4.25 ± 0.23 (treatment: DMSO) and 4.332 ± 0.041 (treatment: MLN4924 1 uM, 8 h).
For KAAALPPFPLGASAQNGLASSLPA [PLAGL1], the protein stability index came to 3.75 ± 0.21 (treatment: DMSO) and 3.82 ± 0.21 (treatment: MLN4924 1 uM, 8 h).
In the same order, the values of KAPKKDVIKMLVNDNKVLRYLAVL [EFHC1] are 2.65 ± 0.49 and 2.44 ± 0.58.
In the same order, the values of KCFHEIITIGYRVYHSYDLPWFRT [CDS1] are 2.88 ± 0.49 and 2.87 ± 0.56.
For KDAYVQKLVKVCNGHDCWSLISLS [TENT5D] the same measures were 2.43 ± 0.41 and 2.14 ± 0.26.
KEEAQAEIEQYRLQREKEFKAKEA [ATP6V1G1]: the protein stability index amounted to 5.5 ± 0.21 (treatment: DMSO) and 5.58 ± 0.38 (treatment: MLN4924 1 uM, 8 h).
For the sequence KEEKCQGKGDDSETDKNNCSNAKA [KCNA4], the protein stability index runs as follows: (treatment: DMSO) 5.49 ± 0.088; (treatment: MLN4924 1 uM, 8 h) 5.55 ± 0.19.
For KEILRTLQDVFCWLPLATLIDEKV [PPEF2] the same measures were 2.46 ± 0.25 and 3.03 ± 0.57.
Consider KETLRLHPDIFLPSEICDRLVNEY [ZER1], for which the protein stability index was 2.82 ± 0.39 (treatment: DMSO) and 2.83 ± 0.21 (treatment: MLN4924 1 uM, 8 h).
In the same order, the values of KFMLREQFEANGYFFKRPYPFVLF [KMT2E] are 3.41 ± 0.39 and 2.73 ± 0.97.
In the same order, the values of KFSGLYILSFTVIMVGFILYCSTP [SLC35F2] are 3.22 ± 0.4 and 3.17 ± 0.24.
